Legend:
加His标签的重组人类CD163(R&D …) [1] = biological target: T1, 加His标签的重组人类CD163(R&D Systems，编号1607-CD-050)蛋白 (human, UniProt Q86VB7 46-1050); test: ELISA EC50 ratio; upper end of the range, tied to V1 through the lowest EC50 of Table 7
T1 construct: Bought recombinant protein coated on ELISA plates; also called 重组CD163蛋白; huCD163; not shown: His tag

人类CD163蛋白(生物素化) = biological target: T2, 人类CD163蛋白(生物素化) (human, UniProt Q86VB7 46-1050, limits assumed, biotinylated (sites not given)); test: BLI, b-huCD163 on SA biosensor, four antibody concentrations
T2 construct: also called b-huCD163; 生物素标记的人类CD163

加His标签的重组人类CD163(R&D …) [2] = biological target: T1, 加His标签的重组人类CD163(R&D …); test: ELISA EC50 ratio; lower end of the range, tied to V4 through the highest EC50 of Table 7

T1 sequence (Q86VB7 46-1050 limits assumed): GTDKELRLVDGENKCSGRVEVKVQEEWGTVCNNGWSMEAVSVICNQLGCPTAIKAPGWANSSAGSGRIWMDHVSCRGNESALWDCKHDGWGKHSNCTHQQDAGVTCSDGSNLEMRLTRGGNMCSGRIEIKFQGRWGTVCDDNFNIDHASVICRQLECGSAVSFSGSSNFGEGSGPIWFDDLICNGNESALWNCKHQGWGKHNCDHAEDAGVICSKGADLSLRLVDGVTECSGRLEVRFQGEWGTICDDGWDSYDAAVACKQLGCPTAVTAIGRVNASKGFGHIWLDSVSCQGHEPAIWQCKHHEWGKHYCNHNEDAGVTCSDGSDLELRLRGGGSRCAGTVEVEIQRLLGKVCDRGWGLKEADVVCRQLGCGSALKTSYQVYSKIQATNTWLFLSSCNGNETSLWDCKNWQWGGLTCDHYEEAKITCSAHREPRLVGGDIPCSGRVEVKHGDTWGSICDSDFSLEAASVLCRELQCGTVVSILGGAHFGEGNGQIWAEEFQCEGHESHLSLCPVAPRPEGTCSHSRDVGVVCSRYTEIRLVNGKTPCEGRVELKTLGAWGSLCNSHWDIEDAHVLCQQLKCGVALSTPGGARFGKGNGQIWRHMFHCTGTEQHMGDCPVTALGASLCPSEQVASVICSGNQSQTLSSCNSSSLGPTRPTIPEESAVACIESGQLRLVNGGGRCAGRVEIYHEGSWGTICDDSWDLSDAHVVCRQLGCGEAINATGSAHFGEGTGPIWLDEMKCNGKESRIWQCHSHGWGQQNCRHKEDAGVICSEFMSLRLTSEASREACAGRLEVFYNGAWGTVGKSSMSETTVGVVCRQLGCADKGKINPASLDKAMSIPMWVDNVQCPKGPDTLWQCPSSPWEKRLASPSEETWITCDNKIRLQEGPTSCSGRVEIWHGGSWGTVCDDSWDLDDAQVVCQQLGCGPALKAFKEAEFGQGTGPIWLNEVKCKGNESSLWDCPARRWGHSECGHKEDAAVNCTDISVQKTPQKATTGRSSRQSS
T2 sequence (Q86VB7 46-1050 limits assumed): as above

Row | fold stronger binding than AB101 parental antibody (加His标签的重组人类CD163(R&D …) [1]) [fold] | fold increase of affinity against AB101 parental Ab (人类CD163蛋白(生物素化)) [fold] | fold stronger binding than AB101 parental antibody (加His标签的重组人类CD163(R&D …) [2]) [fold] | Binder
1 | 45 | – | – | 变体1(V1) (antibody, V domains shown) VH: EVQLVESGGGVVQPGRSLRLSCAASGFTFSSYDMHWVRQAPGKGLEWVAVISEDGSNKYNADSVKGRFTISRDNSKNTLYLQMNSLRAEDTAVYYCARENVRPYYDFWSGYSSEYYYYGLDVWGQGTTVTVS VL: not shown
2 | – | ~3760 | 27 | 变体4(V4) (antibody, V domains shown, also called 克隆4) VH: EVQLVESGGGVVQPGRSLRLSCAASGFTFSSYVMHWVRQAPGKGLEWVAVISEDGSNKYNADSVKGRFTISRDNSKNTLYLQMNSLRAEDTAVYYCARENVRPYYDFWSGYSSEYYYYGLDVWGQGTTVTVSS VL: not shown

Reference: patent CN117062835A (ONCORIS PONS, dated 2023)
